# Experimental data from patent US12698507B2, “Methods and compositions for conferring and/or enhancing herbicide tolerance using protoporphyrinogen IX oxidase of various cyanobacteria or variant thereof” (FarmHannong Co., Ltd., priority 2019, dated 2026).
# System: PPO-deficient BT3 E. coli (ΔPPO)
# Assay: PPO-inhibiting herbicide tolerance test of PPO variants in E. coli (growth on herbicide-containing LB agar)
# Format: cell-based
# Conditions: CyPPO19 variants in BT3 (ΔPPO) E. coli; LB agar with 0 to 2,000 μM herbicide, 37° C., dark, 16-20 hours
# From the text: To enhance the PPO-inhibiting herbicide resistance of CyPPO19 and CyPPO18, PPO variant genes of the above example 2 were constructed. They were transformed to BT3 (ΔPPO) strain which is deficient of PPO activity and cultured in LB media with PPO-inhibiting herbicide, thereby examining whether growth of transformed BT3 was not inhibited.
# BT3 competent cells were transformed with the pET303-CyPPO19 (wild type), pET303-CyPPO18 (wild type) plasmids, and those with a mutation(s) constructed (refer to example 2) via heat shock method, and were cultured in LB agar media containing ampicillin.
# Single colony transformed with each CyPPO gene was cultured in 3 mL of LB broth (LPSS) containing ampicillin for more than 12 hours, and then was subcultured in LB broth until absorbance (OD600) reached 0.5 to 1. Then, it was diluted with LB broth to OD600=0.5. Again, the diluted solution was serially diluted 4 times by a factor of one tenth.
# The LB agar media (LB 25 g/L, Bacto agar 12 g/L) containing ampicillin (100 μg/mL) and 0 to 2,000 μM of various herbicides were prepared. Herbicide solution stocks were all prepared in DMSO.
# Then, 10 μL of each diluted solution of E. coli was dropped on the plate and cultured at 37° C. under dark for 16-20 hours. PPO-inhibiting herbicide resistance was evaluated with the extent of E. coli growth containing each gene was observed.
# The extent of herbicide resistance was evaluated by the relative growth of variants to that of wild type, and listed in Tables 9 and 10 and FIGS. 3 to 32.
# In Tables 9 and 10, the tolerance level of variants showing equivalent resistance to wild type was presented as ‘−’, and was done as ‘+’ per each 10-fold resistance until ‘+++++’ as maximal resistance.
# FIGS. 3 to 30 and FIGS. 31 and 32 show the transformed E. coli growth result of CyPPO19 WT and its variants and CyPPO18 WT and its variants, respectively. The concentrations of herbicides were written above the photographs of tolerance test. A 10-fold dilution series of spots were shown from OD600=0.5 of the leftmost spot to OD600=0.00005 of the rightmost one.
Molecule,"tolerance level relative to wild type, Carfentrazone","tolerance level relative to wild type, Flumioxazin","tolerance level relative to wild type, Fomesafen","tolerance level relative to wild type, Oxyfluorfen","tolerance level relative to wild type, Saflufenacil","tolerance level relative to wild type, Sulfentrazone","tolerance level relative to wild type, Tiafenacil"
"CyPPO19 R89A + I408W + F360V: variant of CyPPO19 PPO protein (SEQ ID NO: 1) (protein, Synthetic_PPO of Thermosynechococcus elongatus PKUAC-SCTE542 (comprising GenBank No. CP032152.1)) MSEVDVAIVGGGLSGLSLAWRLQQSAPQYSVVLLEASDRLGGNITTQTAEGFVWELGPNSFAPTPALLQLIAEVGLQSELIRGDRHLPAYIYWRGQLYPLQPTRPLALATSNLLSPWGKVRAALGALGFVPPYLGSGDESVNSFFRRHLGQEVAERLVAPFVSGVYAGDPQQLSAAAAFRRIAQLEKLGGGLIAGALHLRRQQAPKPKPPTSVQMRPGELGSFKEGLAALPRAIAQQLKAPIHLQTPVQEITPDPKGGYLLRSGEQTWRARSVVLATPAYQTAELVAPFQPAIARVLATIPYPTVACVVLAYPAGLGRSVRPGFGVLIPRSQGIRTLGTIWSSCLFPQRTPAGWQVFTSVIGGATDPDLASLSEEAIVQQVQQDLNRLLDLPAAKARLLGMKVWRRAWPQYMVGYPEQWQQVTHALSQTPGLFLCSNYAEGVALGDRVEHGNRTAAAVAAYLSGGQP",+ (‘+’ per each 10-fold resistance),+++++ (until ‘+++++’ as maximal resistance),+++++ (until ‘+++++’ as maximal resistance),+++ (‘+’ per each 10-fold resistance),+++++ (until ‘+++++’ as maximal resistance),+++++ (until ‘+++++’ as maximal resistance),+++++ (until ‘+++++’ as maximal resistance)
"CyPPO19 V165S + A167C + F360L: variant of CyPPO19 PPO protein (SEQ ID NO: 1) (protein, Synthetic_PPO of Thermosynechococcus elongatus PKUAC-SCTE542 (comprising GenBank No. CP032152.1)) MSEVDVAIVGGGLSGLSLAWRLQQSAPQYSVVLLEASDRLGGNITTQTAEGFVWELGPNSFAPTPALLQLIAEVGLQSELIRGDRHLPRYIYWRGQLYPLQPTRPLALATSNLLSPWGKVRAALGALGFVPPYLGSGDESVNSFFRRHLGQEVAERLVAPFVSGSYCGDPQQLSAAAAFRRIAQLEKLGGGLIAGALHLRRQQAPKPKPPTSVQMRPGELGSFKEGLAALPRAIAQQLKAPIHLQTPVQEITPDPKGGYLLRSGEQTWRARSVVLATPAYQTAELVAPFQPAIARVLATIPYPTVACVVLAYPAGLGRSVRPGFGVLIPRSQGIRTLGTIWSSCLFPQRTPAGWQVFTSLIGGATDPDLASLSEEAIVQQVQQDLNRLLDLPAAKARLLGMKVWRRAIPQYMVGYPEQWQQVTHALSQTPGLFLCSNYAEGVALGDRVEHGNRTAAAVAAYLSGGQP",+ (‘+’ per each 10-fold resistance),++++ (‘+’ per each 10-fold resistance),+ (‘+’ per each 10-fold resistance),+ (‘+’ per each 10-fold resistance),+++ (‘+’ per each 10-fold resistance),++ (‘+’ per each 10-fold resistance),++++ (‘+’ per each 10-fold resistance)
"CyPPO19 V165C + A167L + F360T: variant of CyPPO19 PPO protein (SEQ ID NO: 1) (protein, Synthetic_PPO of Thermosynechococcus elongatus PKUAC-SCTE542 (comprising GenBank No. CP032152.1)) MSEVDVAIVGGGLSGLSLAWRLQQSAPQYSVVLLEASDRLGGNITTQTAEGFVWELGPNSFAPTPALLQLIAEVGLQSELIRGDRHLPRYIYWRGQLYPLQPTRPLALATSNLLSPWGKVRAALGALGFVPPYLGSGDESVNSFFRRHLGQEVAERLVAPFVSGCYLGDPQQLSAAAAFRRIAQLEKLGGGLIAGALHLRRQQAPKPKPPTSVQMRPGELGSFKEGLAALPRAIAQQLKAPIHLQTPVQEITPDPKGGYLLRSGEQTWRARSVVLATPAYQTAELVAPFQPAIARVLATIPYPTVACVVLAYPAGLGRSVRPGFGVLIPRSQGIRTLGTIWSSCLFPQRTPAGWQVFTSTIGGATDPDLASLSEEAIVQQVQQDLNRLLDLPAAKARLLGMKVWRRAIPQYMVGYPEQWQQVTHALSQTPGLFLCSNYAEGVALGDRVEHGNRTAAAVAAYLSGGQP",+ (‘+’ per each 10-fold resistance),+++ (‘+’ per each 10-fold resistance),++ (‘+’ per each 10-fold resistance),+ (‘+’ per each 10-fold resistance),+++ (‘+’ per each 10-fold resistance),+++ (‘+’ per each 10-fold resistance),++++ (‘+’ per each 10-fold resistance)
"CyPPO19 V165S + A167I + F360M: variant of CyPPO19 PPO protein (SEQ ID NO: 1) (protein, Synthetic_PPO of Thermosynechococcus elongatus PKUAC-SCTE542 (comprising GenBank No. CP032152.1)) MSEVDVAIVGGGLSGLSLAWRLQQSAPQYSVVLLEASDRLGGNITTQTAEGFVWELGPNSFAPTPALLQLIAEVGLQSELIRGDRHLPRYIYWRGQLYPLQPTRPLALATSNLLSPWGKVRAALGALGFVPPYLGSGDESVNSFFRRHLGQEVAERLVAPFVSGSYIGDPQQLSAAAAFRRIAQLEKLGGGLIAGALHLRRQQAPKPKPPTSVQMRPGELGSFKEGLAALPRAIAQQLKAPIHLQTPVQEITPDPKGGYLLRSGEQTWRARSVVLATPAYQTAELVAPFQPAIARVLATIPYPTVACVVLAYPAGLGRSVRPGFGVLIPRSQGIRTLGTIWSSCLFPQRTPAGWQVFTSMIGGATDPDLASLSEEAIVQQVQQDLNRLLDLPAAKARLLGMKVWRRAIPQYMVGYPEQWQQVTHALSQTPGLFLCSNYAEGVALGDRVEHGNRTAAAVAAYLSGGQP",+ (‘+’ per each 10-fold resistance),+++++ (until ‘+++++’ as maximal resistance),++ (‘+’ per each 10-fold resistance),++ (‘+’ per each 10-fold resistance),++++ (‘+’ per each 10-fold resistance),+++ (‘+’ per each 10-fold resistance),+++++ (until ‘+++++’ as maximal resistance)
"CyPPO19 R89A + I408R + F360L: variant of CyPPO19 PPO protein (SEQ ID NO: 1) (protein, Synthetic_PPO of Thermosynechococcus elongatus PKUAC-SCTE542 (comprising GenBank No. CP032152.1)) MSEVDVAIVGGGLSGLSLAWRLQQSAPQYSVVLLEASDRLGGNITTQTAEGFVWELGPNSFAPTPALLQLIAEVGLQSELIRGDRHLPAYIYWRGQLYPLQPTRPLALATSNLLSPWGKVRAALGALGFVPPYLGSGDESVNSFFRRHLGQEVAERLVAPFVSGVYAGDPQQLSAAAAFRRIAQLEKLGGGLIAGALHLRRQQAPKPKPPTSVQMRPGELGSFKEGLAALPRAIAQQLKAPIHLQTPVQEITPDPKGGYLLRSGEQTWRARSVVLATPAYQTAELVAPFQPAIARVLATIPYPTVACVVLAYPAGLGRSVRPGFGVLIPRSQGIRTLGTIWSSCLFPQRTPAGWQVFTSLIGGATDPDLASLSEEAIVQQVQQDLNRLLDLPAAKARLLGMKVWRRARPQYMVGYPEQWQQVTHALSQTPGLFLCSNYAEGVALGDRVEHGNRTAAAVAAYLSGGQP",+ (‘+’ per each 10-fold resistance),+++ (‘+’ per each 10-fold resistance),+ (‘+’ per each 10-fold resistance),+ (‘+’ per each 10-fold resistance),+++ (‘+’ per each 10-fold resistance),++ (‘+’ per each 10-fold resistance),+++ (‘+’ per each 10-fold resistance)
